Test [1] has as its target putative Btnl2 receptor on activated CD4+ T cells. The test is described as follows: cell-based or functional assay.
Test [2] has the same target. The experiment in a line: flow cytometry, Fc-fusion staining of activated mouse CD4+ T cells at 72 hours.

“mouse Btnl2-Fc (from UniProt O70355 24-454) (Fc fusion)” showed a cytokine production of activated CD4+ T cells after 72 hours of culture in test [1] greater than 40%. In addition, the decrease in binding with CD28 co-stimulation (α-CD3/α-CD28 against α-CD3 alone) in test [2] was determined as 50%.

For the origin of these results see patent US20240327489A1.
